Legend:
HeLa Kyoto [1] = experiment: solubility change mitosis vs G1/S (difference of NP-40 vs SDS log2 ratios) (log2 ratio difference); higher = more soluble in mitosis
HeLa Kyoto [2] = experiment: solubility in G1/S (NP-40 vs SDS abundance) (log2 ratio); higher = more soluble; settings: cell cycle stage: G1/S
HeLa Kyoto [3] = experiment: thermal stability score vs G1/S (z-score of summed log2 fold changes over temperatures); higher = more thermally stable than in G1/S
HeLa Kyoto [4] = experiment: melting temperature (median over replicates), in situ; higher = more thermally stable
[5] = cell cycle stage: early G1 (4.5 h after nocodazole release)
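For melting temperature (median over replicates), in situ in this document: HeLa Kyoto cells synchronized by double thymidine or nocodazole block, proteins quantified by TMT10plex mass spectrometry, three independent biological replicates.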
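For solubility change mitosis vs G1/S (difference of NP-40 vs SDS log2 ratios) in this document: synchronized HeLa Kyoto cells (double thymidine block for G1/S, nocodazole release for mitosis), protein amounts in NP-40 versus SDS lysates quantified by mass spectrometry, three biological replicates.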
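For solubility in G1/S (NP-40 vs SDS abundance) in this document: HeLa Kyoto cells arrested at G1/S by double thymidine block, proteins quantified by TMT10plex mass spectrometry in mild NP-40 versus SDS extracts, three biological replicates.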
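For thermal stability score vs G1/S (z-score of summed log2 fold changes over temperatures) in this document: synchronized HeLa Kyoto cells, proteins quantified by TMT10plex mass spectrometry, three biological replicates, mitosis taken 0.5 h after nocodazole release, G1/S directly after double thymidine block.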

## MAAAAASHLNLDALREVLECPICMESFTEEQLRPKLLHCGHTICRQCLEKLLASSINGVRCPFCSKITRITSLTQLTDNLTVLKIIDTAGLSEAVGLLMCRSCGRRLPRQFCRSCGLVLCEPCREADHQPPGHCTLPVKEAAEERRRDFGEKLTRLRELMGELQRRKAALEGVSKDLQARYKAVLQEYGHEERRVQDELARSRKFFTGSLAEVEKSNSQVVEEQSYLLNIAEVQAVSRCDYFLAKIKQADVALLEETADEEEPELTASLPRELTLQDVELLKVGHVGPLQIGQAVKKPRTVNVEDSWAMEATASAASTSVTFREMDMSPEEVVASPRASPAKQRGPEAASNIQQCLFLKKMGAKGSTPGMFNLPVSLYVTSQGEVLVADRGNYRIQVFTRKGFLKEIRRSPSGIDSFVLSFLGADLPNLTPLSVAMNCQGLIGVTDSYDNSLKVYTLDGHCVACHRSQLSKPWGITALPSGQFVVTDVEGGKLWCFTVDRGSGVVKYSCLCSAVRPKFVTCDAEGTVYFTQGLGLNLENRQNEHHLEGGFSIGSVGPDGQLGRQISHFFSENEDFRCIAGMCVDARGDLIVADSSRKEILHFPKGGGYSVLIREGLTCPVGIALTPKGQLLVLDCWDHCIKIYSYHLRRYSTP [TRIM32]
HeLa Kyoto [1]
  solubility change mitosis (log2): 0.0329
HeLa Kyoto [2]
  solubility in G1/S (log2): -0.286
HeLa Kyoto [3]; [5]
  thermal stability score: 0.931
HeLa Kyoto [3]; cell cycle stage: mitosis
  thermal stability score: 0.623
HeLa Kyoto [4]; cell cycle stage: G1/S
  melting temperature: 51.8 °C
HeLa Kyoto [4]; cell cycle stage: mitosis
  melting temperature: 52.2 °C

## MAPVGVEKKLLLGPNGPAVAAAGDLTSEEEEGQSLWSSILSEVSTRARSKLPSGKNILVFGEDGSGKTTLMTKLQGAEHGKKGRGLEYLYLSVHDEDRDDHTRCNVWILDGDLYHKGLLKFAVSAESLPETLVIFVADMSRPWTVMESLQKWASVLREHIDKMKIPPEKMRELERKFVKDFQDYMEPEEGCQGSPQRRGPLTSGSDEENVALPLGDNVLTHNLGIPVLVVCTKCDAVSVLEKEHDYRDEHLDFIQSHLRRFCLQYGAALIYTSVKEEKNLDLLYKYIVHKTYGFHFTTPALVVEKDAVFIPAGWDNEKKIAILHENFTTVKPEDAYEDFIVKPPVRKLVHDKELAAEDEQVFLMKQQSLLAKQPATPTRASESPARGPSGSPRTQGRGGPASVPSSSPGTSVKKPDPNIKNNAASEGVLASFFNSLLSKKTGSPGSPGAGGVQSTAKKSGQKTVLSNVQEELDRMTRKPDSMVTNSSTENEA [DYNC1LI2]
HeLa Kyoto [1]
  solubility change mitosis (log2): 0.046
HeLa Kyoto [2]
  solubility in G1/S (log2): 0.247
HeLa Kyoto [3]; [5]
  thermal stability score: -0.131
HeLa Kyoto [3]; cell cycle stage: mitosis
  thermal stability score: 0.16
HeLa Kyoto [4]; cell cycle stage: G1/S
  melting temperature: 50.6 °C
HeLa Kyoto [4]; cell cycle stage: mitosis
  melting temperature: 51.5 °C

## MAALYRPGLRLNWHGLSPLGWPSCRSIQTLRVLSGDLGQLPTGIRDFVEHSARLCQPEGIHICDGTEAENTATLTLLEQQGLIRKLPKYNNCWLARTDPKDVARVESKTVIVTPSQRDTVPLPPGGARGQLGNWMSPADFQRAVDERFPGCMQGRTMYVLPFSMGPVGSPLSRIGVQLTDSAYVVASMRIMTRLGTPVLQALGDGDFVKCLHSVGQPLTGQGEPVSQWPCNPEKTLIGHVPDQREIISFGSGYGGNSLLGKKCFALRIASRLARDEGWLAEHMLILGITSPAGKKRYVAAAFPSACGKTNLAMMRPALPGWKVECVGDDIAWMRFDSEGRLRAINPENGFFGVAPGTSATTNPNAMATIQSNTIFTNVAETSDGGVYWEGIDQPLPPGVTVTSWLGKPWKPGDKEPCAHPNSRFCAPARQCPIMDPAWEAPEGVPIDAIIFGGRRPKGVPLVYEAFNWRHGVFVGSAMRSESTAAAEHKGKIIMHDPFAMRPFFGYNFGHYLEHWLSMEGRKGAQLPRIFHVNWFRRDEAGHFLWPGFGENARVLDWICRRLEGEDSARETPIGLVPKEGALDLSGLRAIDTTQLFSLPKDFWEQEVRDIRSYLTEQVNQDLPKEVLAELEALERRVHKM [PCK2]
HeLa Kyoto [1]
  solubility change mitosis (log2): -0.0852
HeLa Kyoto [2]
  solubility in G1/S (log2): 0.00231
HeLa Kyoto [3]; [5]
  thermal stability score: -2.32
HeLa Kyoto [3]; cell cycle stage: mitosis
  thermal stability score: -1.91
HeLa Kyoto [4]; cell cycle stage: G1/S
  melting temperature: 52.8 °C
HeLa Kyoto [4]; cell cycle stage: mitosis
  melting temperature: 52.1 °C

## MRKGVLKDPEIADLFYKDDPEELFIGLHEIGHGSFGAVYFATNAHTSEVVAIKKMSYSGKQTHEKWQDILKEVKFLRQLKHPNTIEYKGCYLKEHTAWLVMEYCLGSASDLLEVHKKPLQEVEIAAITHGALHGLAYLHSHALIHRDIKAGNILLTEPGQVKLADFGSASMASPANSFVGTPYWMAPEVILAMDEGQYDGKVDIWSLGITCIELAERKPPLFNMNAMSALYHIAQNDSPTLQSNEWTDSFRRFVDYCLQKIPQERPTSAELLRHDFVRRDRPLRVLIDLIQRTKDAVRELDNLQYRKMKKILFQETRNGPLNESQEDEEDSEHGTSLNREMDSLGSNHSIPSMSVSTGSQSSSVNSMQEVMDESSSELVMMHDDESTINSSSSVVHKKDHVFIRDEAGHGDPRPEPRPTQSVQSQALHYRNRERFATIKSASLVTRQIHEHEQENELREQMSGYKRMRRQHQKQLIALENKLKAEMDEHRLKLQKEVETHANNSSIELEKLAKKQVAIIEKEAKVAAADEKKFQQQILAQQKKDLTTFLESQKKQYKICKEKIKEEMNEDHSTPKKEKQERISKHKENLQHTQAEEEAHLLTQQRLYYDKNCRFFKRKIMIKRHEVEQQNIREELNKKRTQKEMEHAMLIRHDESTRELEYRQLHTLQKLRMDLIRLQHQTELENQLEYNKRRERELHRKHVMELRQQPKNLKAMEMQIKKQFQDTCKVQTKQYKALKNHQLEVTPKNEHKTILKTLKDEQTRKLAILAEQYEQSINEMMASQALRLDEAQEAECQALRLQLQQEMELLNAYQSKIKMQTEAQHERELQKLEQRVSLRRAHLEQKIEEELAALQKERSERIKNLLERQEREIETFDMESLRMGFGNLVTLDFPKEDYR [TAOK3]
HeLa Kyoto [1]
  solubility change mitosis (log2): -0.0814
HeLa Kyoto [2]
  solubility in G1/S (log2): -0.118
HeLa Kyoto [3]; [5]
  thermal stability score: -0.159
HeLa Kyoto [3]; cell cycle stage: mitosis
  thermal stability score: -0.329
HeLa Kyoto [4]; cell cycle stage: G1/S
  melting temperature: 50.9 °C
HeLa Kyoto [4]; cell cycle stage: mitosis
  melting temperature: 50.5 °C

## MAPVLSKDSADIESILALNPRTQTHATLCSTSAKKLDKKHWKRNPDKNCFNCEKLENNFDDIKHTTLGERGALREAMRCLKCADAPCQKSCPTNLDIKSFITSIANKNYYGAAKMIFSDNPLGLTCGMVCPTSDLCVGGCNLYATEEGPINIGGLQQFATEVFKAMSIPQIRNPSLPPPEKMSEAYSAKIALFGAGPASISCASFLARLGYSDITIFEKQEYVGGLSTSEIPQFRLPYDVVNFEIELMKDLGVKIICGKSLSVNEMTLSTLKEKGYKAAFIGIGLPEPNKDAIFQGLTQDQGFYTSKDFLPLVAKGSKAGMCACHSPLPSIRGVVIVLGAGDTAFDCATSALRCGARRVFIVFRKGFVNIRAVPEEMELAKEEKCEFLPFLSPRKVIVKGGRIVAMQFVRTEQDETGKWNEDEDQMVHLKADVVISAFGSVLSDPKVKEALSPIKFNRWGLPEVDPETMQTSEAWVFAGGDVVGLANTTVESVNDGKQASWYIHKYVQSQYGASVSAKPELPLFYTPIDLVDISVEMAGLKFINPFGLASATPATSTSMIRRAFEAGWGFALTKTFSLDKDIVTNVSPRIIRGTTSGPMYGPGQSSFLNIELISEKTAAYWCQSVTELKADFPDNIVIASIMCSYNKNDWTELAKKSEDSGADALELNLSCPHGMGERGMGLACGQDPELVRNICRWVRQAVQIPFFAKLTPNVTDIVSIARAAKEGGANGVTATNTVSGLMGLKSDGTPWPAVGIAKRTTYGGVSGTAIRPIALRAVTSIARALPGFPILATGGIDSAESGLQFLHSGASVLQVCSAIQNQDFTVIEDYCTGLKALLYLKSIEELQDWDGQSPATVSHQKGKPVPRIAELMDKKLPSFGPYLEQRKKIIAENKIRLKEQNVAFSPLKRNCFIPKRPIPTIKDVIGKALQYLGTFGELSNVEQVVAMIDEEMCINCGKCYMTCNDSGYQAIQFDPETHLPTITDTCTGCTLCLSVCPIVDCIKMVSRTTPYEPKRGVPLSVNPVC [DPYD]
HeLa Kyoto [1]
  solubility change mitosis (log2): 0.02
HeLa Kyoto [2]
  solubility in G1/S (log2): -0.116
HeLa Kyoto [3]; [5]
  thermal stability score: -1.59
HeLa Kyoto [3]; cell cycle stage: mitosis
  thermal stability score: -1.63
HeLa Kyoto [4]; cell cycle stage: G1/S
  melting temperature: 54 °C
HeLa Kyoto [4]; cell cycle stage: mitosis
  melting temperature: 53.5 °C

## MADSKEGVLPLTAASTAPISFGFTRTSARRRLADSGDGAGPSPEEKDFLKTVEGRELQSVKPQEAPKELVIPLIQNGHRRQPPARPPGPSTDTGALADGVVSQAVKELIAESKKSLEERENAGVDPTLAIPMIQKGCTPSGEGADSEPRAETVPEEANYEAVPVEAYGLAMLRGMGWKPGEGIGRTFNQVVKPRVNSLRPKGLGLGANLTEAQALTPTGPSRMPRPDEEQEKDKEDQPQGLVPGGAVVVLSGPHRGLYGKVEGLDPDNVRAMVRLAVGSRVVTVSEYYLRPVSQQEFDKNTLDLRQQNGTASSRKTLWNQELYIQQDNSERKRKHLPDRQDGPAAKSEKAAPRSQHWLHRDLRVRFVDNMYKGGQYYNTKMIIEDVLSPDTCVCRTDEGRVLEGLREDMLETLVPKAEGDRVMVVLGPQTGRVGHLLSRDRARSRALVQLPRENQVVELHYDAICQYMGPSDTDDD [GPKOW]
HeLa Kyoto [1]
  solubility change mitosis (log2): -0.0336
HeLa Kyoto [2]
  solubility in G1/S (log2): 0.393
HeLa Kyoto [3]; [5]
  thermal stability score: 0.906
HeLa Kyoto [3]; cell cycle stage: mitosis
  thermal stability score: 2.23
HeLa Kyoto [4]; cell cycle stage: G1/S
  melting temperature: 48.8 °C
HeLa Kyoto [4]; cell cycle stage: mitosis
  melting temperature: 49.8 °C

## MAAKSQPNIPKAKSLDGVTNDRTASQGQWGRAWEVDWFSLASVIFLLLFAPFIVYYFIMACDQYSCALTGPVVDIVTGHARLSDIWAKTPPITRKAAQLYTLWVTFQVLLYTSLPDFCHKFLPGYVGGIQEGAVTPAGVVNKYQINGLQAWLLTHLLWFANAHLLSWFSPTIIFDNWIPLLWCANILGYAVSTFAMVKGYFFPTSARDCKFTGNFFYNYMMGIEFNPRIGKWFDFKLFFNGRPGIVAWTLINLSFAAKQRELHSHVTNAMVLVNVLQAIYVIDFFWNETWYLKTIDICHDHFGWYLGWGDCVWLPYLYTLQGLYLVYHPVQLSTPHAVGVLLLGLVGYYIFRVANHQKDLFRRTDGRCLIWGRKPKVIECSYTSADGQRHHSKLLVSGFWGVARHFNYVGDLMGSLAYCLACGGGHLLPYFYIIYMAILLTHRCLRDEHRCASKYGRDWERYTAAVPYRLLPGIF [DHCR7]
HeLa Kyoto [1]
  solubility change mitosis (log2): -0.0769
HeLa Kyoto [2]
  solubility in G1/S (log2): -0.604
HeLa Kyoto [3]; [5]
  thermal stability score: 0.148
HeLa Kyoto [3]; cell cycle stage: mitosis
  thermal stability score: -0.18
HeLa Kyoto [4]; cell cycle stage: G1/S
  melting temperature: 51 °C
HeLa Kyoto [4]; cell cycle stage: mitosis
  melting temperature: 50.7 °C

## MAELGAGGDGHRGGDGAVRSETAPDSYKVQDKKNASSRPASAISGQNNNHSGNKPDPPPVLRVDDRQRLARERREEREKQLAAREIVWLEREERARQHYEKHLEERKKRLEEQRQKEERRRAAVEEKRRQRLEEDKERHEAVVRRTMERSQKPKQKHNRWSWGGSLHGSPSIHSADPDRRSVSTMNLSKYVDPVISKRLSSSSATLLNSPDRARRLQLSPWESSVVNRLLTPTHSFLARSKSTAALSGEAASCSPIIMPYKAAHSRNSMDRPKLFVTPPEGSSRRRIIHGTASYKKERERENVLFLTSGTRRAVSPSNPKARQPARSRLWLPSKSLPHLPGTPRPTSSLPPGSVKAAPAQVRPPSPGNIRPVKREVKVEPEKKDPEKEPQKVANEPSLKGRAPLVKVEEATVEERTPAEPEVGPAAPAMAPAPASAPAPASAPAPAPVPTPAMVSAPSSTVNASASVKTSAGTTDPEEATRLLAEKRRLAREQREKEERERREQEELERQKREELAQRVAEERTTRREEESRRLEAEQAREKEEQLQRQAEERALREREEAERAQRQKEEEARVREEAERVRQEREKHFQREEQERLERKKRLEEIMKRTRRTEATDKKTSDQRNGDIAKGALTGGTEVSALPCTTNAPGNGKPVGSPHVVTSHQSKVTVESTPDLEKQPNENGVSVQNENFEEIINLPIGSKPSRLDVTNSESPEIPLNPILAFDDEGTLGPLPQVDGVQTQQTAEVI [MAP7]
HeLa Kyoto [1]
  solubility change mitosis (log2): 0.704
HeLa Kyoto [2]
  solubility in G1/S (log2): -0.661
HeLa Kyoto [3]; [5]
  thermal stability score: -5.44
HeLa Kyoto [3]; cell cycle stage: mitosis
  thermal stability score: -8.57
HeLa Kyoto [4]; cell cycle stage: G1/S
  melting temperature: 54.3 °C
HeLa Kyoto [4]; cell cycle stage: mitosis
  melting temperature: 52.1 °C

Source: the supplement of paper PMC5998384
